Measured values as given in patent US20260241049A1, “Radiopharmaceutical Compositions Targeting Glypican-3 and Uses Thereof” (RayzeBio, Inc., priority 2023, published 2026).
Starred links: 1 amine or outer side, 2 acyl side, 3 side chain; linkers in the order of their positions; H or OH if unused. Positions of bridges follow the written chain, without caps; N, C: chain ends. Non-standard residues stand in square brackets, D forms with d. Residues, ends and D or L forms follow the SMILES beside them. Groups on a side chain read outwards from the residue. Primed or numbered codes have the meaning given here. *: point of attachment. MeKCOpipzaa″ = (2S)-6-{[4-(carboxymethyl)piperazine-1-carbonyl]amino}-2-(methylamino)hexanoic acid, CN([C@@H](CCCCNC(=O)N1CCN(CC(=O)[*:3])CC1)C(=O)[*:2])[*:1]; MeHseMe″ = (2S)-4-methoxy-2-(methylamino)butanoic acid (N-methyl-O-methyl-L-homoserine), COCC[C@@H](C(=O)[*:2])N(C)[*:1]; F4aao = 4-(carboxymethoxy)-L-phenylalanine, O=C([C@H](Cc1ccc(OCC(=O)[*:3])cc1)N[*:1])[*:2]; MeHseMe = N-methyl-O-methyl-L-homoserine, COCC[C@@H](C(=O)[*:2])N(C)[*:1]; Phe(4-(1-Me-pyrazol-4-yl)) = Cn1cc(-c2ccc(C[C@H](N)C(=O)O)cc2)cn1; SulfoCy5″ = sulfo-Cyanine5 hexanoyl dye as amide on the lysine NZ; TMe = O-methyl-L-threonine, CO[C@H](C)[C@H](N[*:1])C(=O)[*:2]; NMeAla(isoquinolin-7-yl) = CN[C@@H](Cc1ccc2ccncc2c1)C(=O)O; SulfoCy5(3) = sulfo-Cyanine5 hexanoyl dye on the lysine NZ; PEG12 = NCCOCCOCCOCCOCCOCCOCCOCCOCCOCCOCCOCCOCCC(=O)O; Phe(4-CH2COOH) = N[C@@H](Cc1ccc(CC(=O)O)cc1)C(=O)O; X2 = CN([C@@H](CC1CCN(CC(=O)O)CC1)C(=O)[*:2])[*:1]; 3Pal(6-Ph) = N[C@@H](Cc1ccc(-c2ccccc2)nc1)C(=O)O; Biotin = O=C1N[C@H]2[C@H](CS[C@H]2CCCCC(=O)*)N1; Phe(4-COOH) = N[C@@H](Cc1ccc(C(=O)O)cc1)C(=O)O; Piperazinyl(4-CH2COOH) = O=C(O)CN1CCN(*)CC1; NMe2Nal = CN[C@@H](Cc1ccc2ccccc2c1)C(=O)O; AEF = NCCOc1ccc(C[C@H](N)C(=O)O)cc1; NMeY = CN[C@@H](Cc1ccc(O)cc1)C(=O)O; NMeI = CC[C@H](C)[C@H](NC)C(=O)O; NMeQ = CN[C@@H](CCC(N)=O)C(=O)O; NMehSer = CN[C@@H](CCO)C(=O)O; NMeK = CN[C@@H](CCCCN)C(=O)O; NMeDap = CN[C@@H](CN)C(=O)O; NMeC = CN[C@@H](CS)C(=O)O; NMeA = CN[C@@H](C)C(=O)O; CO = O=C([*:1])[*:2]

B1: PLB-28 (peptide)
peptide: {CH2CO}-[NMeQ][NMeQ]D[NMeQ][Phe(4-COOH)]II[AEF]([PEG12-Biotin])[NMe2Nal]G[Phe(4-(1-Me-pyrazol-4-yl))][NMeC]-NH2
modifications: thioether N-12
SMILES: CC[C@H](C)[C@@H]1NC(=O)[C@H](Cc2ccc(C(=O)O)cc2)NC(=O)[C@H](CCC(N)=O)N(C)C(=O)[C@H](CC(=O)O)NC(=O)[C@H](CCC(N)=O)N(C)C(=O)[C@H](CCC(N)=O)N(C)C(=O)CSC[C@@H](C(N)=O)N(C)C(=O)[C@H](Cc2ccc(-c3cnn(C)c3)cc2)NC(=O)CNC(=O)[C@H](Cc2ccc3ccccc3c2)N(C)C(=O)[C@H](Cc2ccc(OCCNC(=O)CCOCCOCCOCCOCCOCCOCCOCCOCCOCCOCCOCCOCCNC(=O)CCCC[C@@H]3SC[C@@H]4NC(=O)N[C@@H]43)cc2)NC(=O)[C@H]([C@@H](C)CC)NC1=O
B2: PLD-45 (peptide)
peptide: {CH2CO}-K[MeHseMe]D[NMeQ][Phe(4-COOH)][TMe]IY[NMeAla(isoquinolin-7-yl)]G[3Pal(6-Ph)][NMeC]-NH2
modifications: thioether N-12; not fully specified (residue 1); printed as MeK-MeHseMe-D-MeQ-F4COO-TMe-I-Y-MeNal27N-G-3Py6Ph-MeC-NH2
notes: SulfoCy5 conjugate
B3: PLB-30 (peptide)
peptide: {CH2CO}-[NMeK]([PEG12-Biotin])[NMeI]D[NMeQ][Phe(4-COOH)][TMe]I[F4aao][NMeAla(isoquinolin-7-yl)]G[3Pal(6-Ph)][NMeC]-NH2
modifications: thioether N-12
SMILES: CC[C@H](C)[C@@H]1NC(=O)[C@H]([C@@H](C)OC)NC(=O)[C@H](Cc2ccc(C(=O)O)cc2)NC(=O)[C@H](CCC(N)=O)N(C)C(=O)[C@H](CC(=O)O)NC(=O)[C@H]([C@@H](C)CC)N(C)C(=O)[C@H](CCCCNC(=O)CCOCCOCCOCCOCCOCCOCCOCCOCCOCCOCCOCCOCCNC(=O)CCCC[C@@H]2SC[C@@H]3NC(=O)N[C@@H]32)N(C)C(=O)CSC[C@@H](C(N)=O)N(C)C(=O)[C@H](Cc2ccc(-c3ccccc3)nc2)NC(=O)CNC(=O)[C@H](Cc2ccc3ccncc3c2)N(C)C(=O)[C@H](Cc2ccc(OCC(=O)O)cc2)NC1=O
B4: Macrocyclic peptide of Example 2-55 (SEQ ID No. 56) (peptide)
peptide: {CH2CO}-[MeKCOpipzaa″][NMeA]D[NMeY][Phe(4-COOH)][TMe]I[AEF][NMeY]G[3Pal(6-Ph)][NMeC]-NH2
modifications: thioether N-12
SMILES: CC[C@H](C)[C@@H]1NC(=O)[C@H]([C@@H](C)OC)NC(=O)[C@H](Cc2ccc(C(=O)O)cc2)NC(=O)[C@H](Cc2ccc(O)cc2)N(C)C(=O)[C@H](CC(=O)O)NC(=O)[C@H](C)N(C)C(=O)[C@H](CCCCNC(=O)N2CCN(CC(=O)O)CC2)N(C)C(=O)CSC[C@@H](C(N)=O)N(C)C(=O)[C@H](Cc2ccc(-c3ccccc3)nc2)NC(=O)CNC(=O)[C@H](Cc2ccc(O)cc2)N(C)C(=O)[C@H](Cc2ccc(OCCN)cc2)NC1=O
B5: Macrocyclic peptide of Example 2-56 (SEQ ID No. 27) (peptide)
peptide: {CH2CO}-[NMeQ][NMeQ]D[NMeQ][AEF]II[Phe(4-CH2COOH)][NMe2Nal]G[Phe(4-(1-Me-pyrazol-4-yl))][NMeC]-NH2
modifications: thioether N-12
SMILES: CC[C@H](C)[C@@H]1NC(=O)[C@H](Cc2ccc(OCCN)cc2)NC(=O)[C@H](CCC(N)=O)N(C)C(=O)[C@H](CC(=O)O)NC(=O)[C@H](CCC(N)=O)N(C)C(=O)[C@H](CCC(N)=O)N(C)C(=O)CSC[C@@H](C(N)=O)N(C)C(=O)[C@H](Cc2ccc(-c3cnn(C)c3)cc2)NC(=O)CNC(=O)[C@H](Cc2ccc3ccccc3c2)N(C)C(=O)[C@H](Cc2ccc(CC(=O)O)cc2)NC(=O)[C@H]([C@@H](C)CC)NC1=O
B6: PLB-60 (peptide)
peptide: KIDQFIIYFGXCG
modifications: not fully specified; MeKAc-MeI-D-MeQ-F4COO-I-I-Y-MeNal27N-G-3Py6Ph-MeC-G-PEG12c-K(biotin)-NH2 by Table 13 (Table 1 prints PEG10c and K at positions 14 and 15 of SEQ ID No. 60); thioether ring from N-terminal acetyl to MeC12
notes: Biotin on the C-terminal tail outside the ring

Key:
[1] = biological target: Human Glypican3-Fc (Homo sapiens, UniProt P51654); experiment: SPR binding to Glypican-3, Method B-3 (Glypican3-Fc captured on Protein A chip, 5-point dilution series); conditions: SPR method B-3
Procedure: (§1) A Protein A sensor chip (Cytiva) was inserted into a Biacore T200 (Cytiva), priming was performed three times with a running buffer: HBS-P+, pH 7.4 (Cytiva), and equilibration was carried out at a flow rate of 30 μL/min. Glypican3-Fc was allowed to react for 60 seconds at a flow rate of 10 μL/min. After capturing human Glypican3-Fe, a peptide solution prepared to 10 mM in DMSO solution was diluted with a running buffer to a final concentration of 10 μM. After that, 5 serial dilution series (100 nM, 50 nM, 25 nM, 10 nM, 5 nM) of peptide solutions were prepared. Using the above samples, peptide kinetics for Glypican3 was obtained by SPR measurement. Kinetics evaluation of Glypican3 was performed by SPR measurements at a flow rate of 10 LL/min, setting the association time to 120 seconds and the disassociation time to 600 seconds.
(§2) The obtained data by Method B-1, Method B-2, Method B-3 and Method B-4 were analyzed by follow. Single Cycle Kinetics was used as the kinetics evaluation model, and curve fitting was performed using Biacore T200 Evaluation Software Version 3.0 (Cytiva).

[2] = biological target: T1, Human Glypican3-Fc (ACRO Biosystems, GP3-H5258) (human, UniProt P51654 25-559); experiment: SPR (Biacore T200), Method B-3: Glypican3-Fc captured on Protein A chip, peptide as analyte
T1 construct: Bought fusion protein, captured in Methods B-2, B-3 and B-4; Catalogue number is printed only in Method B-2; not shown: Fc part of the bought fusion
Procedure: as §1, with “After that, 5 serial dilution series (100 nM, 50 nM, 25 nM, 10 nM, 5 nM) of peptide solutions were prepared.” left out
as §2

Molecule	Kd [1]	Kd [2]
CC[C@H](C)[C@@H]1NC(=O)[C@H](Cc2ccc(C(=O)O)cc2)NC(=O)[C@H](CCC(N)=O)N(C)C(=O)[C@H](CC(=O)O)NC(=O)[C@H](CCOC)N(C)C(=O)[C@H](CCCCN)N(C)C(=O)CSC[C@@H](C(N)=O)N(C)C(=O)[C@H](Cc2ccc(-c3ccccc3)nc2)NC(=O)CNC(=O)[C@H](Cc2ccc3ccccc3c2)N(C)C(=O)[C@H](Cc2ccc(CC(=O)O)cc2)NC(=O)[C@H]([C@@H](C)CC)NC1=O [Conjugate 2-47] ({CH2CO}-[NMeK][NMehSer](Me)D[NMeQ][Phe(4-COOH)]II[Phe(4-CH2COOH)][NMe2Nal]G[3Pal(6-Ph)][NMeC]-NH2; thioether N-12)	0.2 nM	–
CC[C@H](C)[C@@H]1NC(=O)[C@H](Cc2ccc(C(=O)O)cc2)NC(=O)[C@H](CCC(N)=O)N(C)C(=O)[C@H](CCC(N)=O)NC(=O)[C@H]([C@@H](C)CC)N(C)C(=O)[C@H](CCCCN)N(C)C(=O)CSC[C@@H](C(N)=O)N(C)C(=O)[C@H](Cc2ccc(-c3cnn(C)c3)cc2)NC(=O)CNC(=O)[C@H](Cc2ccc3ccccc3c2)N(C)C(=O)[C@H](Cc2ccc(C(=O)O)cc2)NC(=O)[C@H]([C@@H](C)CC)NC1=O [Conjugate 2-46] ({CH2CO}-[NMeK][NMeI]Q[NMeQ][Phe(4-COOH)]II[Phe(4-COOH)][NMe2Nal]G[Phe(4-(1-Me-pyrazol-4-yl))][NMeC]-NH2; thioether N-12)	0.2 nM	–
CC[C@H](C)[C@@H]1NC(=O)[C@H]([C@@H](C)OC)NC(=O)[C@H](Cc2ccc(C(=O)O)cc2)NC(=O)[C@H](CNC(=O)N2CCN(CC(=O)O)CC2)N(C)C(=O)[C@H](CC(=O)O)NC(=O)[C@H](CCOC)N(C)C(=O)[C@H](CNC(=O)N2CCN(CC(=O)O)CC2)N(C)C(=O)CSC[C@@H](C(N)=O)N(C)C(=O)[C@H](Cc2ccc(-c3ccccc3)nc2)NC(=O)CNC(=O)[C@H](Cc2ccc3ccccc3c2)N(C)C(=O)[C@H](Cc2ccc(OCCN)cc2)NC1=O [Conjugate 2-33] ({CH2CO}-[NMeDap]([CO-Piperazinyl(4-CH2COOH)])[NMehSer](Me)D[NMeDap]([CO-Piperazinyl(4-CH2COOH)])[Phe(4-COOH)]T(Me)I[AEF][NMe2Nal]G[3Pal(6-Ph)][NMeC]-NH2; thioether N-12 (inferred))	0.3 nM	–
CC[C@H](C)[C@@H]1NC(=O)[C@H]([C@@H](C)OC)NC(=O)[C@H](Cc2ccc(C(=O)O)cc2)NC(=O)[C@H](CC2CCN(CC(=O)O)CC2)N(C)C(=O)[C@H](CC(=O)O)NC(=O)[C@H](CCC(N)=O)N(C)C(=O)[C@H](CCCCN)N(C)C(=O)CSC[C@@H](C(N)=O)N(C)C(=O)[C@H](Cc2ccc(-c3cnn(C)c3)cc2)NC(=O)CNC(=O)[C@H](Cc2ccc3ccccc3c2)N(C)C(=O)[C@H](Cc2ccc(CC(=O)O)cc2)NC1=O [Conjugate 2-51] ({CH2CO}-[NMeK][NMeQ]D[X2][Phe(4-COOH)]T(Me)I[Phe(4-CH2COOH)][NMe2Nal]G[Phe(4-(1-Me-pyrazol-4-yl))][NMeC]-NH2; thioether N-12)	2.5 nM	–
CC[C@H](C)[C@@H]1NC(=O)[C@H]([C@@H](C)OC)NC(=O)[C@H](Cc2ccc(C(=O)O)cc2)NC(=O)[C@H](CCC(N)=O)N(C)C(=O)[C@H](CC(=O)O)NC(=O)[C@H](CCOC)N(C)C(=O)[C@H](CCCCNC(=O)N2CCN(CC(=O)O)CC2)N(C)C(=O)CSC[C@@H](C(N)=O)N(C)C(=O)[C@H](Cc2ccc(-c3ccccc3)nc2)NC(=O)CNC(=O)[C@H](Cc2ccc3ccncc3c2)N(C)C(=O)[C@H](Cc2ccc(O)cc2)NC1=O [Conjugate 2-24] ({CH2CO}-[NMeK]([CO-Piperazinyl(4-CH2COOH)])[NMehSer](Me)D[NMeQ][Phe(4-COOH)]T(Me)IY[NMeAla(isoquinolin-7-yl)]G[3Pal(6-Ph)][NMeC]-NH2; thioether N-12)	0.5 nM	–
B1	–	1.53 nM
B2	–	0.88 nM
{CH2CO}-[NMeK](SulfoCy5(3))[MeHseMe]D[NMeQ][Phe(4-COOH)][TMe]I[F4aao][NMeAla(isoquinolin-7-yl)]G[3Pal(6-Ph)][NMeC]-NH2 (thioether N-12) [Mod7]	–	4.2 nM
{CH2CO}-[NMeK](SulfoCy5″)[NMeI]D[NMeQ][Phe(4-COOH)][TMe]I[F4aao][NMeAla(isoquinolin-7-yl)]G[3Pal(6-Ph)][NMeC]-NH2 (thioether N-12) [PLD-30]	–	1.08 nM
B3	–	0.75 nM
B4	–	5.3 nM
B5	–	7.9 nM
B6	–	0.11 nM
{CH2CO}-[NMeA][MeHseMe″]D[NMeQ][Phe(4-COOH)][TMe]I[AEF][NMe2Nal]G[3Pal(6-Ph)][NMeC]-NH2 (thioether N-12; not fully specified (residue 8)) [Mod3]	–	0.9 nM
